Data from US20020062009A1 (GlaxoSmithKline, published 2002).
Each block holds one binder with its values, some of them ahead of it.

What was measured:
[1] = target: T1, human erythropoietin receptor (EPOr), recombinant entire extracellular domain (human, UniProt P19235 25-250); assay: BIAcore 1000 SPR; antibody captured by protein A-bound rabbit anti-mouse Fc, monomeric EPOr in solution, 20 C (exponent as printed; kon and KD imply 10^-3)
T1 construct: extracellular domain; also called human EPOr; monomeric EPOr
T1 sequence (looked up): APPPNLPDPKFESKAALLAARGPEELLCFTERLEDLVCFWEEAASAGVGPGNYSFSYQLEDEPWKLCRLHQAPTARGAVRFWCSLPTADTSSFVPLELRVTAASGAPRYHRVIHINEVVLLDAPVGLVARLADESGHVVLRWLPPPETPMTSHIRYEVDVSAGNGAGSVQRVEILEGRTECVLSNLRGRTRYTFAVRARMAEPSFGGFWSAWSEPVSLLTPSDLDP
Protocol: (§1) A BIAcore analysis (Pharmacia) was performed to determine the binding affinity for human EPOr of murine 3G9 and CP3G9. The interaction of CP3G9 as well as murine 3G9 with EPOr was characterized using a BIAcore 1000 biosensor. Descriptions of the instrumentation and the sensor surfaces are described in Brigham-Burke et al., Anal. Biochem., 205:125-131 (1992).
(§2) CP3G9 was captured onto a sensor surface of immobilized protein A. The kinetic binding constants were determined by passing solutions of monomeric EPOr over the surface and monitoring binding versus time. The equilibrium dissociation constant for the interaction was then derived from the ratio of the kinetic constants. The parent murine 3G9 was captured onto a surface of protein A captured rabbit anti-mouse Fc specific polyclonal antibody. The kinetics and dissociation constant for the interaction with EPOr was determined as described above. All measurements were made in 10 mM sodium phosphate, 150 mM NaCl pH 7.23 mM EDTA and 0.005% Tween 20. The flow rate was 60 uL/min. The temperature was 20° C.

[2] = target: T1, human erythropoietin receptor (EPOr), …; assay: BIAcore 1000 SPR; antibody captured by protein A-bound rabbit anti-mouse Fc, monomeric EPOr in solution, 20 C; KD from ratio of kinetic constants
Protocol: as §1, §2

[3] = target: T1, human erythropoietin receptor (EPOr), …; assay: BIAcore 1000 SPR; antibody captured by protein A-bound rabbit anti-mouse Fc, monomeric EPOr in solution, 20 C
Protocol: as §1, §2

[4] = target: T2, purified human alpha v beta 3 integrin (biotinylated) (human, UniProt P06756 31-1048; P05106 27-788, limits assumed); assay: ORIGEN electrochemiluminescence; antibody dilutions with biotinylated purified integrin, captured on streptavidin beads
T2 construct: also called αvβ3; human integrin αvβ3
Protocol: The relative binding avidity of CPB9 was compared to that of the original murine B9 antibody as follows. CPB9 antibodies present in culture supernatants from cells maintained in culture for 5 days after transfection with the expression constructs were compared to the parental murine B9 antibody using the ORIGEN technology (IGEN Inc, Gaithersburg, Md.). Briefly, different dilutions of the B9 variants were incubated with purified human αvβ3 integrin which had previously been biotinylated, and an electrochemiluminescent TAG moiety specific for the antibody C regions. B9 variant antibody bound to the integrin was measured by capturing the immune complexes onto streptavidin beads followed by analysis on the ORIGEN instrument.

[5] = target: T1, human erythropoietin receptor (EPOr), …; assay: BIAcore 1000 SPR; antibody captured on immobilized protein A, monomeric EPOr in solution, 20 C (exponent as printed; kon and KD imply 10^-3)
Protocol: as §1, §2

[6] = target: T1, human erythropoietin receptor (EPOr), …; assay: BIAcore 1000 SPR
Protocol: as §1, §2

[7] = target: T1, human erythropoietin receptor (EPOr), …; assay: BIAcore 1000 SPR; antibody captured on immobilized protein A, monomeric EPOr in solution, 20 C; KD from ratio of kinetic constants
Protocol: as §1, §2

[8] = target: T1, human erythropoietin receptor (EPOr), …; assay: BIAcore 1000 SPR; antibody captured on immobilized protein A, monomeric EPOr in solution, 20 C
Protocol: as §1, §2

T2 sequence (P06756 31-1048 limits assumed, form in doubt, chain 1 of 2): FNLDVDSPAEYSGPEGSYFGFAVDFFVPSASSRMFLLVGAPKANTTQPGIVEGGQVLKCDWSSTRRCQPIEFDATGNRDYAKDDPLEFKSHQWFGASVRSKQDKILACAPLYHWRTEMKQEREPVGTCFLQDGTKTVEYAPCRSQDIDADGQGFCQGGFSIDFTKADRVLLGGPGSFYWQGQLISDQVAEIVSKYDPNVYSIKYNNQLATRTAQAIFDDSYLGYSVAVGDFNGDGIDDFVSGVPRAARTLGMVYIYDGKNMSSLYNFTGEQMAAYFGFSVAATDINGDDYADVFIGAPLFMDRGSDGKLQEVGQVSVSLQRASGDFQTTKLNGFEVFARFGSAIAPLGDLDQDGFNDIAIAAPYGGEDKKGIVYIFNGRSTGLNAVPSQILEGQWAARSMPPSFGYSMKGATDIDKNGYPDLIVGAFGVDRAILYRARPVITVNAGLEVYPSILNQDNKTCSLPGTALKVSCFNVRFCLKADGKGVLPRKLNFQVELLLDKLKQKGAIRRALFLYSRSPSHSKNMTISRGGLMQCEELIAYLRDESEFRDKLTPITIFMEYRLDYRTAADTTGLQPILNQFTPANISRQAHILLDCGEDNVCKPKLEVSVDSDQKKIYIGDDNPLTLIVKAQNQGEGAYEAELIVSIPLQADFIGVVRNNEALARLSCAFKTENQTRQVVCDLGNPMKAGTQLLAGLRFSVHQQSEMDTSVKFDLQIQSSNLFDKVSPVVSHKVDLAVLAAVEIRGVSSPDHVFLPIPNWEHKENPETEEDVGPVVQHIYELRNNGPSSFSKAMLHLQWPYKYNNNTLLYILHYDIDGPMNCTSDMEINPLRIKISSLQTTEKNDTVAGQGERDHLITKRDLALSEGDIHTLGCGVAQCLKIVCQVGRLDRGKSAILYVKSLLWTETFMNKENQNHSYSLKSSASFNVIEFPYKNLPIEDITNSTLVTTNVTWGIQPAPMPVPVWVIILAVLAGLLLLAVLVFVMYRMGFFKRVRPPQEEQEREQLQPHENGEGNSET
T2 sequence (P05106 27-788 limits assumed, form in doubt, chain 2 of 2): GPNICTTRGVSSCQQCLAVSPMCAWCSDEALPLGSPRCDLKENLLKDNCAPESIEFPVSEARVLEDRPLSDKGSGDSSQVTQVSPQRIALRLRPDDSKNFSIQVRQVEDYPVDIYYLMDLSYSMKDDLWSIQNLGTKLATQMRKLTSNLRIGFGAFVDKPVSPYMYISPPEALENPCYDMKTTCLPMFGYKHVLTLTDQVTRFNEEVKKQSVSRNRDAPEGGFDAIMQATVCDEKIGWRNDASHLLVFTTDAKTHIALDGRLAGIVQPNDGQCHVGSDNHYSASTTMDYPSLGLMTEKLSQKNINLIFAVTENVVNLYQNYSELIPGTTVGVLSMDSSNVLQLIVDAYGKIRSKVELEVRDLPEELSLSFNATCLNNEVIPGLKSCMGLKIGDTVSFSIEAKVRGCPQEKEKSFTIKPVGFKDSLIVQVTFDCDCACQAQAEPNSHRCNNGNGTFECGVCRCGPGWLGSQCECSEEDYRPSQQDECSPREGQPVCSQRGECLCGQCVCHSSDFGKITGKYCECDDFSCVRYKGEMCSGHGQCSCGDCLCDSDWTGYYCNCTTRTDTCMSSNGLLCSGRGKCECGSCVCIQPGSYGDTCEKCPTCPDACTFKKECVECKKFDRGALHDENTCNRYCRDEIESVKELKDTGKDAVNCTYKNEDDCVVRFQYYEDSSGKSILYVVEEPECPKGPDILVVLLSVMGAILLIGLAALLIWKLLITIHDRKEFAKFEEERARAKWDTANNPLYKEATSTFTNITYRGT

koff [1]: 0.004 s⁻¹
Kd [2]: 3.3 nM
kon [3]: 1.2e+06 M⁻¹ s⁻¹
B1: murine anti-erythropoietin receptor antibody 3G9 (antibody, V domains shown)
VH: QVQLQQPGAELVKSGASVKLSCKASGSTFTSYWMHWVKQRPGRGLEWIGRIDPNSGGTKDNEKFKSKATLTVDKPSSTAYMQLSSLTSEDSAVYYCARETYYDSSFAYWGQGTLVTVSA
VL: DIVMTQSQKFMSTSVGDRVSVTCKASQNVGTNVAWYQQKPGQSPKALIYSASYRYSGVPDRFTGSGSGTDFTLTISNVQSEDLAEYFCQQYNSYPLTFGAGTKLELKR
notes: Murine monoclonal antibody; also called murine 3G9; parent murine 3G9

fold displacement of binding curve against murine B9 [4]: ~3 fold
B2: engineered B9 (CPB9), chimpanzee framework engineered anti-integrin antibody (antibody, IgG1, V domains shown)
VH: QVQLVQSGAEVKKPGSSVKVSCKASGYTFSSYWIEWVKQAPGQGLEWIGEILPRSGNTNYNEKFKGKASFNADTSTNIAYMELTSLRSEDTAVYYCSSRGVRGSMDYWGQGTLVTVSS
VL: DIQMTQSPSSLSASVGDRVTITCRSSQDISNFLNWYQQKPGKAPKLLIYYTSTLHSGVPSRFSGSGSGTDYTLTISSLQPEDFATYYCQQGNTLPWTFGGGTKVEIKR
notes: They were ligated into vectors with IgG1,kappa antibody constant regions and expressed in COS cells; Tested as culture supernatant

koff [5]: 0.0091 s⁻¹
fold difference of KD against murine 3G9 [6]: ≤ 3 fold
Kd [7]: 9.1 nM
kon [8]: 1e+06 M⁻¹ s⁻¹
B3: engineered 3G9 (CP3G9), chimpanzee framework engineered anti-erythropoietin receptor antibody (antibody, IgG1, V domains shown)
VH: QVQLVQSGAEVKKPGSSVKVSCKASGSTFTSYWMHWVKQAPGQGLEWIGRIDPNSGGTKDNEKFKSKATLNVDKSTNIAYMELTSLRSEDTAVYYCARETYYDSSFAYWGQGTMVTVS
VL: DIVMTQSPSSLSASVGDRVTITCKASQNVGTNVAWYQQKPGKAPKALIYSASYRYSGVPDRFSGSGSGTDFTLTISSLQPEDFATYYCQQYNSYPLTFGGGTKVEIK
notes: They were ligated into vectors with IgG1,kappa antibody constant regions and expressed in COS cells; also called chimpanzee version of 3G9
